The values below come from IntAct's records for PubMed 35512704.

To fix the notation:
B1: Speckle-type POZ protein (Homo sapiens), O43791 (parent)
chain: MSRVPSPPPPAEMSSGPVAESWCYTQIKVVKFSYMWTINNFSFCREEMGEVIKSSTFSSGANDKLKWCLRVNPKGLDEESKDYLSLYLLLVSCPKSEVRAKFKFSILNAKGEETKAMESQRAYRFVQGKDWGFKKFIRRDFLLDEANGLLPDDKLTLFCEVSVVQDSVNISGQNTMNMVKVPECRLADELGGLWENSRFTDCCLCVAGQEFQAHKAILAARSPVFSAMFEHEMEESKKNRVEINDVEPEVFKEMMCFIYTGKAPNLDKMADDLLAAADKYALERLKVMCEDALCSNLSVENAAEILILADLHSADQLKTQAVDFINYHASDVLETSGWKSMVVSHPHLVAEAYRSLASAQCPFLGPPRKRLKQS
partner: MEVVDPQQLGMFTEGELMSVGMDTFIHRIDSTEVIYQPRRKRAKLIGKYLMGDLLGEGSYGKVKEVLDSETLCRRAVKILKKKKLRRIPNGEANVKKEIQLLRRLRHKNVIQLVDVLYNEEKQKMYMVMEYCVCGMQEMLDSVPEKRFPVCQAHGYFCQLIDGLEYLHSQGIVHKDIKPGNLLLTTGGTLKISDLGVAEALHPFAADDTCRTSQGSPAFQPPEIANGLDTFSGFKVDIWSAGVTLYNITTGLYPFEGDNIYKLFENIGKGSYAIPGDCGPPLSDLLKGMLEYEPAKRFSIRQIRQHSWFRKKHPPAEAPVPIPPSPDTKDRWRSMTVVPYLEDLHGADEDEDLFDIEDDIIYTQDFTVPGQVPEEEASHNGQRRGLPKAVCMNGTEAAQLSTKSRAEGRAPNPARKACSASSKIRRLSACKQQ
B2: Speckle-type POZ protein (Homo sapiens), O43791 (parent)
chain: B1 chain
partner: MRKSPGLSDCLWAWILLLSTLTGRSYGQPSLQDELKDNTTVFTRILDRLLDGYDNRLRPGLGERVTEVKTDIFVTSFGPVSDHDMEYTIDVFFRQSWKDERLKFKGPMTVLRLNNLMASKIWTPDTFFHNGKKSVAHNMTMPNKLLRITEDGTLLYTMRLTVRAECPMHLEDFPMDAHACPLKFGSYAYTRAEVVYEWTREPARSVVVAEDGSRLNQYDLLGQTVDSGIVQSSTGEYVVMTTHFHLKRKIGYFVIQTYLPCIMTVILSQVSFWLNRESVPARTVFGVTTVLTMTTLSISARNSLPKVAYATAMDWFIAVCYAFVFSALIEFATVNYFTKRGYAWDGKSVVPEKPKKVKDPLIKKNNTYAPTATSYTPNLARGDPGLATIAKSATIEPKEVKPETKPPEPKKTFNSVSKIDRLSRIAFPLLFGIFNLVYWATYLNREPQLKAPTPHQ
B3: Speckle-type POZ protein (Homo sapiens), O43791 (parent)
chain: B1 chain
partner: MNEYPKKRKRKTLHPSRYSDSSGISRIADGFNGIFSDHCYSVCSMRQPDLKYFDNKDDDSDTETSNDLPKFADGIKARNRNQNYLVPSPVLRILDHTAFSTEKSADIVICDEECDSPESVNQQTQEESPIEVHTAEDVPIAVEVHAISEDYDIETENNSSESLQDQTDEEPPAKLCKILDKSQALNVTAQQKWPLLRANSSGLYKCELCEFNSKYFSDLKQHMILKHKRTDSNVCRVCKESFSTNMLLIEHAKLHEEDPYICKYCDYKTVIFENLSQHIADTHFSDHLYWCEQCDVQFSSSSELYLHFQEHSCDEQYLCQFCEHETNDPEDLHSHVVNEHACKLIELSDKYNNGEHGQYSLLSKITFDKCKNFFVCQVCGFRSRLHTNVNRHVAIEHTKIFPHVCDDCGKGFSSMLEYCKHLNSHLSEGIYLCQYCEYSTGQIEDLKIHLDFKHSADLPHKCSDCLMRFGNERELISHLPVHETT
B4: Speckle-type POZ protein (Homo sapiens), O43791 (parent)
chain: B1 chain
partner: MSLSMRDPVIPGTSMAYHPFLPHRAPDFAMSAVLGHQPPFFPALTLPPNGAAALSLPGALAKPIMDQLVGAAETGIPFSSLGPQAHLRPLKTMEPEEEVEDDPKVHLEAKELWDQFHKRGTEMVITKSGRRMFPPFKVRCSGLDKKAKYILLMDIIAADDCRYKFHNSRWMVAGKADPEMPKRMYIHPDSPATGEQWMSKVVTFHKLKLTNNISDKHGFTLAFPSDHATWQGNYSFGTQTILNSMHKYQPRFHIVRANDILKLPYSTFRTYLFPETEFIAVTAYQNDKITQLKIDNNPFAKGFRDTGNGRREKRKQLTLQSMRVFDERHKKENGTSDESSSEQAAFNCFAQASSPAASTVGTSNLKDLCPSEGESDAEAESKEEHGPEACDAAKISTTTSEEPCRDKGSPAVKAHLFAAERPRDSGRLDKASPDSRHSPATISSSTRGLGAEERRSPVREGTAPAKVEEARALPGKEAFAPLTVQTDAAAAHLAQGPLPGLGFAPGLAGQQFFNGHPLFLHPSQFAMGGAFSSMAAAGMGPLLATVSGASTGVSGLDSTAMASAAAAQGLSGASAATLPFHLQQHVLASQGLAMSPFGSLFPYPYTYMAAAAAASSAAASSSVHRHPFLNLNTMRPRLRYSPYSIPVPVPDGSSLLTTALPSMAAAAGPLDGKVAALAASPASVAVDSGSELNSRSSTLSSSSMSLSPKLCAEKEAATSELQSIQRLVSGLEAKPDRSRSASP
B5: Speckle-type POZ protein (Homo sapiens), O43791 (parent)
chain: B1 chain
partner: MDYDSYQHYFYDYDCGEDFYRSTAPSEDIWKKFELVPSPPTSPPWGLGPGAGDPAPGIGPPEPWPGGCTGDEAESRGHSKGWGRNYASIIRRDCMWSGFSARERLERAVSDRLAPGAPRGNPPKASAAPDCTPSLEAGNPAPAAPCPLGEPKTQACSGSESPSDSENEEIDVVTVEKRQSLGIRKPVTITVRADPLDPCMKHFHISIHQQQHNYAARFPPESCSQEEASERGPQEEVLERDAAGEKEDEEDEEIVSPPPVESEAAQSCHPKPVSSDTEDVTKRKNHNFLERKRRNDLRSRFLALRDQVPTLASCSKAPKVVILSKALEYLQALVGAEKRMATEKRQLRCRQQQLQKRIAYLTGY
B6: Speckle-type POZ protein (Homo sapiens), O43791 (parent)
chain: B1 chain
partner: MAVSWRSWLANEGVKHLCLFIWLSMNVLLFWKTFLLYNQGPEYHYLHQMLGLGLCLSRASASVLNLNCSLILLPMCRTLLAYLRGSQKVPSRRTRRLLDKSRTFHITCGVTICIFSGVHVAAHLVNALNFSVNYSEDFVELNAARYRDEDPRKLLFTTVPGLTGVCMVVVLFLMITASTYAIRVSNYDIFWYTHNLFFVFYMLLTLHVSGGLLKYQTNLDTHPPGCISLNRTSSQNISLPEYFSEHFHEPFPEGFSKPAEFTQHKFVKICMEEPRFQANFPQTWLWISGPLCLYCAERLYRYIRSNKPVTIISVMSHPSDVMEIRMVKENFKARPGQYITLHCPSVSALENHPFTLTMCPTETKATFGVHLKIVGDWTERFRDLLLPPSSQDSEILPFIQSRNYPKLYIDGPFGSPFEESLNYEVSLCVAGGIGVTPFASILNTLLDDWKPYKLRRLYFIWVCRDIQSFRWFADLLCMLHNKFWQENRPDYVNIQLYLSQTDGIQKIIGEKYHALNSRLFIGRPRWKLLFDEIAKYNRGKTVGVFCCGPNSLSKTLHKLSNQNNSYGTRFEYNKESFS
B7: Speckle-type POZ protein (Homo sapiens), O43791 (parent)
chain: B1 chain
partner: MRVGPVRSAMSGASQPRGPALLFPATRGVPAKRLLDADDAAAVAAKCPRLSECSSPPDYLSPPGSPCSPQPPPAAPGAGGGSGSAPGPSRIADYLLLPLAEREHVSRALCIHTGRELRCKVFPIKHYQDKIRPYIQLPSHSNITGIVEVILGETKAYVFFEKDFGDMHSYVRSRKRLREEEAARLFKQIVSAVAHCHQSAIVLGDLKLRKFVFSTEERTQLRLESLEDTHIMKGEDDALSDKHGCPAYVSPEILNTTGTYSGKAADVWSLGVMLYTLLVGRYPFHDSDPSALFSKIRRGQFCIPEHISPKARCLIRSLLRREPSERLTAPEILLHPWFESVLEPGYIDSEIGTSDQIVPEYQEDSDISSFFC
B8: Speckle-type POZ protein (Homo sapiens), O43791 (parent)
chain: B1 chain
partner: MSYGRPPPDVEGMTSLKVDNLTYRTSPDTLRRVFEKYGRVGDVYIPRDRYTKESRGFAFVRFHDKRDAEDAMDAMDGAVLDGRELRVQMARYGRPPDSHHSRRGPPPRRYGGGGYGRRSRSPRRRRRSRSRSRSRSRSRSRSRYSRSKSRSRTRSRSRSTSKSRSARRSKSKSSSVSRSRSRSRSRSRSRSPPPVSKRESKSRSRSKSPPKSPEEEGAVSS
B9: Speckle-type POZ protein (Homo sapiens), O43791 (parent)
chain: B1 chain
partner: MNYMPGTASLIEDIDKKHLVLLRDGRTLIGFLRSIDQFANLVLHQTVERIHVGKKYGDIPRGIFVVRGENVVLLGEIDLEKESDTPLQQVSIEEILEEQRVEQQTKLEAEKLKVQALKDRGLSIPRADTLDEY

In one test the parent is B1. Particulars: with stk11_human STK11, Q15831.
F102C: the “effect of a mutation on the interaction” value is given as “with no effect”.

The variants in another test derive from B2. Conditions: with gbra1_human GABRA1, P14867.
As for Y87C, the “effect of a mutation on the interaction” value is reported as “with no effect”.

Another test covers variants of B3. Conditions: with zn639_human ZNF639, Q9UID6.
With F102C, the “effect of a mutation on the interaction” value is “with no effect”.

Another test covers variants of B3. Particulars: with zn639_human ZNF639, Q9UID6. This is another data set of the same source.
As for F133V, the “effect of a mutation on the interaction” value is reported as “with no effect”.

In another test the parent is B3. Conditions: with zn639_human ZNF639, Q9UID6. The source holds these as a separate data set.
Take F133L: the “effect of a mutation on the interaction” value is given as “with no effect”.

Variants of B4 are the subject of another test. Particulars: with tbx3_human TBX3, O15119.
Consider F102C, for which the “effect of a mutation on the interaction” value is “with no effect”.

Variants of B4 are the subject of the next test. Particulars: with tbx3_human TBX3, O15119. The source holds these as a separate data set.
Turning to F133L, the “effect of a mutation on the interaction” value is “with no effect”.

Variants of B4 are the subject of a further test. Conditions: with tbx3_human TBX3, O15119. The source holds these as a separate data set.
For F133V, the “effect of a mutation on the interaction” value was “with no effect”.

Variants of B4 are the subject of another test. Conditions: with tbx3_human TBX3, O15119. This is another data set of the same source.
Consider Y87C, for which the “effect of a mutation on the interaction” value is listed as “with no effect”.

The next test covers variants of B5. Particulars: with mycl_human MYCL.
For the variant Y87C, the “effect of a mutation on the interaction” value is on record as “with no effect”.

The variants in a further test derive from B5. Conditions: with mycl_human MYCL. The source holds these as a separate data set.
Consider F133L, for which the “effect of a mutation on the interaction” value is listed as “with no effect”.

The variants in a further test derive from B6. Particulars: with nox4_human NOX4, Q9NPH5.
For Y87C, the “effect of a mutation on the interaction” value was “with no effect”.

The variants in a further test derive from B7. Particulars: with trib1_human TRIB1, Q96RU8.
In the case of F102C, the “effect of a mutation on the interaction” value is given as “with no effect”.

In a further test the parent is B7. Conditions: with trib1_human TRIB1, Q96RU8. This is another data set of the same source.
As for F133L, the “effect of a mutation on the interaction” value was “causing an interaction”.

The variants in the next test derive from B7. Conditions: with trib1_human TRIB1, Q96RU8. The source holds these as a separate data set.
For F133V, the “effect of a mutation on the interaction” value is recorded as “causing an interaction”.

In a further test the parent is B7. Particulars: with trib1_human TRIB1, Q96RU8. The source holds these as a separate data set.
In the case of Y87C, the “effect of a mutation on the interaction” value is listed as “with no effect”.

The variants in a further test derive from B8. Particulars: with srsf2_human SRSF2, Q01130.
Take Y87C: the “effect of a mutation on the interaction” value is reported as “with no effect”.

Variants of B8 are the subject of another test. Particulars: with srsf2_human SRSF2, Q01130. This is another data set of the same source.
Regarding F133L, the “effect of a mutation on the interaction” value was “with no effect”.

In a further test the parent is B8. Conditions: with srsf2_human SRSF2, Q01130. The source holds these as a separate data set.
For the variant F133V, the “effect of a mutation on the interaction” value is listed as “with no effect”.

In a further test the parent is B9. Particulars: with lsm1_human LSM1, O15116.
In the case of F133V, the “effect of a mutation on the interaction” value is “with no effect”.

Variants of B9 are the subject of a further test. Conditions: with lsm1_human LSM1, O15116. The source holds these as a separate data set.
F133L: the “effect of a mutation on the interaction” value is “with no effect”.

In the next test the parent is B9. Particulars: with lsm1_human LSM1, O15116. This is another data set of the same source.
For the variant Y87C, the “effect of a mutation on the interaction” value is listed as “with no effect”.
